Data reported in the supplement of paper PMC9233669.
Fewer inactive variants are shown than the library holds.

Experiments:
biotinyl-Val-oxazolone = assay: self-aminoacylation, catalytic enhancement (BVO) (fold over background); higher = more active; k-Seq, kA / k0A0; sequences stand for … in GGGAAUGGAUCCACAUCUACGAAUUC…UUCACUGCAGACUUGACGAAGCUG
Summary of the method: (§1)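 Mutagenized RNA pools with a 21-nt variable region (0.43 μM) reacted with each biotinyl-aminoacyl-oxazolone at 2–1250 μM. Reactions ran in 50 μL HEPES/NaCl/KCl/MgCl2/CaCl2 buffer with 5% acetonitrile, pH 6.9–7.0, for 90 minutes at room temperature. Streptavidin-captured RNA was quantified by triplicate qPCR and Illumina sequencing, and per-sequence fraction reacted was fit to a pseudo-first-order model with 1000 bootstraps. Catalytic enhancement is median kA divided by the uncatalyzed rate, the low-activity peak of a bimodal Gaussian fit.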

biotinyl-Leu-oxazolone = assay: self-aminoacylation, catalytic enhancement (BLO) (fold over background); higher = more active; k-Seq, kA / k0A0; sequences stand for … in GGGAAUGGAUCCACAUCUACGAAUUC…UUCACUGCAGACUUGACGAAGCUG
Summary of the method: as §1

biotinyl-Phe-oxazolone = assay: self-aminoacylation, catalytic enhancement (BFO) (fold over background); higher = more active; k-Seq, kA / k0A0; sequences stand for … in GGGAAUGGAUCCACAUCUACGAAUUC…UUCACUGCAGACUUGACGAAGCUG
Summary of the method: as §1

biotinyl-Trp-oxazolone = assay: self-aminoacylation, catalytic enhancement (BWO) (fold over background); higher = more active; k-Seq, kA / k0A0; sequences stand for … in GGGAAUGGAUCCACAUCUACGAAUUC…UUCACUGCAGACUUGACGAAGCUG
Summary of the method: as §1

biotinyl-Met-oxazolone = assay: self-aminoacylation, catalytic enhancement (BMO) (fold over background); higher = more active; k-Seq, kA / k0A0; sequences stand for … in GGGAAUGGAUCCACAUCUACGAAUUC…UUCACUGCAGACUUGACGAAGCUG
Summary of the method: as §1

**Q.** Which results are given for “AUACACCUAGGUCAUCGGGCG [Fam2.2 aminoacylation ribozyme variant]”?
**A.** self-aminoacylation (biotinyl-Val-oxazolone): 2.18; self-aminoacylation (biotinyl-Leu-oxazolone): 2.58; self-aminoacylation (biotinyl-Phe-oxazolone): 11; self-aminoacylation (biotinyl-Trp-oxazolone): 2.86; self-aminoacylation (biotinyl-Met-oxazolone): 2.8

**Q.** What does the source list for “AUUACCGUGCUCAUCGAGUGA [Fam2.1 aminoacylation ribozyme variant]”?
**A.** self-aminoacylation (biotinyl-Leu-oxazolone): 2.64; self-aminoacylation (biotinyl-Phe-oxazolone): 2.01; self-aminoacylation (biotinyl-Trp-oxazolone): 3.33; self-aminoacylation (biotinyl-Met-oxazolone): 2.12

**Q.** How did the self-aminoacylation (biotinyl-Leu-oxazolone) turn out when “AUUACGCUGGUCAUCAAGUGA [Fam2.1 aminoacylation ribozyme variant]” was run?
**A.** The self-aminoacylation was 2.55.

**Q.** And the self-aminoacylation (biotinyl-Phe-oxazolone)?
**A.** Its self-aminoacylation is 2.38.

**Q.** What about the self-aminoacylation (biotinyl-Trp-oxazolone) of the same sequence?
**A.** The self-aminoacylation was 3.76.

**Q.** And the self-aminoacylation (biotinyl-Met-oxazolone)?
**A.** Its self-aminoacylation is 2.63.

**Q.** With “AUUCAACUAGGUAAUCGGGUG [Fam2.2 aminoacylation ribozyme variant]” as the sequence, how does the self-aminoacylation (biotinyl-Leu-oxazolone) read?
**A.** Its self-aminoacylation is 3.41.

**Q.** What about the self-aminoacylation (biotinyl-Phe-oxazolone) of the same sequence?
**A.** Its self-aminoacylation is 19.

**Q.** And the self-aminoacylation (biotinyl-Trp-oxazolone)?
**A.** The self-aminoacylation was 2.81.

**Q.** And the self-aminoacylation (biotinyl-Met-oxazolone)?
**A.** The self-aminoacylation was 2.72.

**Q.** “AUUCACCAAGGUCAUAGGGUG [Fam2.2 aminoacylation ribozyme variant]” was tested. Which self-aminoacylation (biotinyl-Leu-oxazolone) did it give?
**A.** Its self-aminoacylation is 4.37.

**Q.** What about the self-aminoacylation (biotinyl-Phe-oxazolone) of the same sequence?
**A.** Its self-aminoacylation is 9.85.

**Q.** And the self-aminoacylation (biotinyl-Trp-oxazolone)?
**A.** Its self-aminoacylation is 2.2.

**Q.** And the self-aminoacylation (biotinyl-Met-oxazolone)?
**A.** Its self-aminoacylation is 2.48.

**Q.** Which results are given for “AUUCACCUACGUCAACGGGUG [Fam2.2 aminoacylation ribozyme variant]”?
**A.** self-aminoacylation (biotinyl-Leu-oxazolone): 3.09; self-aminoacylation (biotinyl-Phe-oxazolone): 9.97; self-aminoacylation (biotinyl-Trp-oxazolone): 2.84; self-aminoacylation (biotinyl-Met-oxazolone): 2.35

**Q.** How did the self-aminoacylation (biotinyl-Leu-oxazolone) turn out when “AUUCACCUACGUCAUCAGGUG [Fam2.2 aminoacylation ribozyme variant]” was run?
**A.** Its self-aminoacylation is 2.86.

**Q.** And the self-aminoacylation (biotinyl-Phe-oxazolone)?
**A.** Its self-aminoacylation is 9.1.

**Q.** What about the self-aminoacylation (biotinyl-Trp-oxazolone) of the same sequence?
**A.** Its self-aminoacylation is 2.08.

**Q.** And the self-aminoacylation (biotinyl-Met-oxazolone)?
**A.** The self-aminoacylation was 2.73.

**Q.** Which results are given for “AUUCACCUACGUCAUCGGGGG [Fam2.2 aminoacylation ribozyme variant]”?
**A.** self-aminoacylation (biotinyl-Val-oxazolone): 2.01; self-aminoacylation (biotinyl-Leu-oxazolone): 2.68; self-aminoacylation (biotinyl-Phe-oxazolone): 6.05

**Q.** Which results are given for “AUUCACCUAGGCCAUCGGCUG [Fam2.2 aminoacylation ribozyme variant]”?
**A.** self-aminoacylation (biotinyl-Val-oxazolone): 2.59; self-aminoacylation (biotinyl-Leu-oxazolone): 2.03; self-aminoacylation (biotinyl-Phe-oxazolone): 10.5; self-aminoacylation (biotinyl-Met-oxazolone): 2.27

**Q.** With “AUUCACCUAGGUAAUCUGGUG [Fam2.2 aminoacylation ribozyme variant]” as the sequence, how does the self-aminoacylation (biotinyl-Leu-oxazolone) read?
**A.** The self-aminoacylation was 4.66.

**Q.** And the self-aminoacylation (biotinyl-Phe-oxazolone)?
**A.** The self-aminoacylation was 16.9.

**Q.** And the self-aminoacylation (biotinyl-Trp-oxazolone)?
**A.** The self-aminoacylation was 3.62.

**Q.** And the self-aminoacylation (biotinyl-Met-oxazolone)?
**A.** Its self-aminoacylation is 3.3.

**Q.** “AUUCACCUAGGUCAUCGGGAC [Fam2.2 aminoacylation ribozyme variant]” was tested. Which self-aminoacylation (biotinyl-Leu-oxazolone) did it give?
**A.** Its self-aminoacylation is 3.

**Q.** What about the self-aminoacylation (biotinyl-Phe-oxazolone) of the same sequence?
**A.** The self-aminoacylation was 2.12.

**Q.** What about the self-aminoacylation (biotinyl-Trp-oxazolone) of the same sequence?
**A.** The self-aminoacylation was 2.55.

**Q.** What about the self-aminoacylation (biotinyl-Met-oxazolone) of the same sequence?
**A.** Its self-aminoacylation is 2.56.

**Q.** Which self-aminoacylation (biotinyl-Val-oxazolone) does the source give for “AUUCACGUAGGUCAUCGGGUC [Fam2.2 aminoacylation ribozyme variant]” here?
**A.** The self-aminoacylation was 2.28.

**Q.** What about the self-aminoacylation (biotinyl-Phe-oxazolone) of the same sequence?
**A.** Its self-aminoacylation is 9.36.

**Q.** What about the self-aminoacylation (biotinyl-Met-oxazolone) of the same sequence?
**A.** Its self-aminoacylation is 2.19.

**Q.** Which self-aminoacylation (biotinyl-Val-oxazolone) does the source give for “AUUCAGCUACGUCAUCGGGUG [Fam2.2 aminoacylation ribozyme variant]” here?
**A.** The self-aminoacylation was 2.02.

**Q.** And the self-aminoacylation (biotinyl-Leu-oxazolone)?
**A.** Its self-aminoacylation is 2.71.

**Q.** What about the self-aminoacylation (biotinyl-Phe-oxazolone) of the same sequence?
**A.** The self-aminoacylation was 10.1.

**Q.** What about the self-aminoacylation (biotinyl-Trp-oxazolone) of the same sequence?
**A.** Its self-aminoacylation is 3.07.

**Q.** With “CAACUUCAAACAAUCGGUCGG [Fam1A.1 aminoacylation ribozyme variant]” as the sequence, how does the self-aminoacylation (biotinyl-Leu-oxazolone) read?
**A.** The self-aminoacylation was 2.79.

**Q.** What about the self-aminoacylation (biotinyl-Phe-oxazolone) of the same sequence?
**A.** Its self-aminoacylation is 87.2.

**Q.** And the self-aminoacylation (biotinyl-Trp-oxazolone)?
**A.** The self-aminoacylation was 32.4.

**Q.** What about the self-aminoacylation (biotinyl-Met-oxazolone) of the same sequence?
**A.** Its self-aminoacylation is 2.1.

**Q.** For “CCACAAUUCACGCAAUCGGUC [Fam1B.1 aminoacylation ribozyme variant]”, which self-aminoacylation (biotinyl-Val-oxazolone) is on record?
**A.** The self-aminoacylation was 2.05.

**Q.** How did the self-aminoacylation (biotinyl-Val-oxazolone) turn out when “CCACACGUCAAGCAAUCGCUC [Fam1B.1 aminoacylation ribozyme variant]” was run?
**A.** Its self-aminoacylation is 2.54.

**Q.** What about the self-aminoacylation (biotinyl-Met-oxazolone) of the same sequence?
**A.** The self-aminoacylation was 2.64.

**Q.** Which self-aminoacylation (biotinyl-Val-oxazolone) does the source give for “CCACACGUCAAGCAAUCGGUU [Fam1B.1 aminoacylation ribozyme variant]” here?
**A.** Its self-aminoacylation is 2.28.

**Q.** With “CCACACUUCAAGCAAUCGGCC [Fam1B.1 aminoacylation ribozyme variant]” as the sequence, how does the self-aminoacylation (biotinyl-Val-oxazolone) read?
**A.** The self-aminoacylation was 2.17.

**Q.** What about the self-aminoacylation (biotinyl-Phe-oxazolone) of the same sequence?
**A.** Its self-aminoacylation is 4.93.

**Q.** What about the self-aminoacylation (biotinyl-Trp-oxazolone) of the same sequence?
**A.** Its self-aminoacylation is 4.72.

**Q.** How did the self-aminoacylation (biotinyl-Val-oxazolone) turn out when “CCACACUUCAAUCAAUCGGCC [Fam1B.1 aminoacylation ribozyme variant]” was run?
**A.** Its self-aminoacylation is 2.11.

**Q.** And the self-aminoacylation (biotinyl-Leu-oxazolone)?
**A.** The self-aminoacylation was 2.16.

**Q.** And the self-aminoacylation (biotinyl-Phe-oxazolone)?
**A.** The self-aminoacylation was 2.71.

**Q.** What about the self-aminoacylation (biotinyl-Trp-oxazolone) of the same sequence?
**A.** The self-aminoacylation was 2.62.

**Q.** What does the source list for “CCACUCUUCAAGCAAUCGGCC [Fam1B.1 aminoacylation ribozyme variant]”?
**A.** self-aminoacylation (biotinyl-Val-oxazolone): 2.16; self-aminoacylation (biotinyl-Leu-oxazolone): 2.23; self-aminoacylation (biotinyl-Phe-oxazolone): 4.1; self-aminoacylation (biotinyl-Trp-oxazolone): 4.14

**Q.** Which self-aminoacylation (biotinyl-Val-oxazolone) does the source give for “CCAGACUUCGAGCAAUCGGUC [Fam1B.1 aminoacylation ribozyme variant]” here?
**A.** The self-aminoacylation was 2.09.

**Q.** With “CCGCACUUCAAGCAAUCGGUU [Fam1B.1 aminoacylation ribozyme variant]” as the sequence, how does the self-aminoacylation (biotinyl-Val-oxazolone) read?
**A.** The self-aminoacylation was 2.45.

**Q.** What about the self-aminoacylation (biotinyl-Leu-oxazolone) of the same sequence?
**A.** The self-aminoacylation was 2.4.

**Q.** What about the self-aminoacylation (biotinyl-Phe-oxazolone) of the same sequence?
**A.** Its self-aminoacylation is 13.9.

**Q.** And the self-aminoacylation (biotinyl-Trp-oxazolone)?
**A.** The self-aminoacylation was 14.4.

**Q.** With “CCGCACUUCAAGCCAUCGGUC [Fam1B.1 aminoacylation ribozyme variant]” as the sequence, how does the self-aminoacylation (biotinyl-Val-oxazolone) read?
**A.** The self-aminoacylation was 2.26.

**Q.** And the self-aminoacylation (biotinyl-Phe-oxazolone)?
**A.** The self-aminoacylation was 2.13.

**Q.** What about the self-aminoacylation (biotinyl-Trp-oxazolone) of the same sequence?
**A.** Its self-aminoacylation is 2.01.

**Q.** Which results are given for “CUGCUUCAAACAAUCGGUGUG [Fam1A.1 aminoacylation ribozyme variant]”?
**A.** self-aminoacylation (biotinyl-Leu-oxazolone): 3.16; self-aminoacylation (biotinyl-Phe-oxazolone): 124; self-aminoacylation (biotinyl-Trp-oxazolone): 49.6; self-aminoacylation (biotinyl-Met-oxazolone): 2.12

**Q.** What does the source list for “CUUAGCCUGGUCAUCGAGUGA [Fam2.1 aminoacylation ribozyme variant]”?
**A.** self-aminoacylation (biotinyl-Leu-oxazolone): 3.38; self-aminoacylation (biotinyl-Phe-oxazolone): 2.6; self-aminoacylation (biotinyl-Trp-oxazolone): 2.72; self-aminoacylation (biotinyl-Met-oxazolone): 2.57

**Q.** Which results are given for “CUUCACCUAGGUCAUCGGCUG [Fam2.2 aminoacylation ribozyme variant]”?
**A.** self-aminoacylation (biotinyl-Val-oxazolone): 2.27; self-aminoacylation (biotinyl-Phe-oxazolone): 9.39; self-aminoacylation (biotinyl-Trp-oxazolone): 2.25

**Q.** Which results are given for “UUUCACCUAGGUCAUCGGGUC [Fam2.2 aminoacylation ribozyme variant]”?
**A.** self-aminoacylation (biotinyl-Val-oxazolone): 2.09; self-aminoacylation (biotinyl-Phe-oxazolone): 2.14
